From the domain aggregation screens of Martell et al. (2025)

Experiment: soluble fraction after stress (log2 fold change); higher = more stays soluble; pooled small domains, quantitative proteomics
Details: stress: 50 degC
Procedure, shortened: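 Quantitative proteomics served as the high-throughput read-out for pooled custom libraries of small protein domains. Each was stressed at 50°C. Aggregation propensity is expressed as the base-two log fold change in soluble protein after stress. A higher value means a larger share of the protein remains in solution.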

Sequence	soluble fraction (log2)
HMIVVMQPGATKEQVQAVIDRVAEFGFQTKLAPGAERMVIGVVGSPLPDTLKEALERLPGVEEVIRVSKR	-0.0691
HMVNDDTIAATEAEILALLADKHRHHITELNSIRRPYEQIDAALSSLINEEKIFQEDGMLFV	0.144
HMLTGESDNVEKSINKLGTENLALADQTNMGFKGTFINSGHGMAIVVKTGMQTELGKIASMIQIA	0.21
HMAARKDLIAGEDAEGRLDAWLAAALDGEFSRNRVKALIEQGAVAINDVAVTEPKRKIRPGDRLSIVLPEP	0.339
HMEIPMRDKLKTYIDYLFAGAPQTAATAETKAEILQNTLDKYDDLIAEGKTPEAAYSLAVSGIGDLGDF	-0.0827
HMKPQKRYLFEEVLTFLKHNSEKSFNYKQLGAAMEISNESDRFTLLETLEELKHQGFVVEKEIGKYQAKE	-0.527
HMHANAALTPRQRLRLAQKIVDEEWTVAAAADYFRVSWPTAAKWARRYVELGEAGMADRSSRP	-2.1
HMQRRHESTPIPADFDYAAVRGLSAEVQQKLERVRPLSIGQAQRIPGMTPAAISLLLVHLERQRRSRV	-0.152
HMSNQLAVPDVTNMKANAAADRLRQQGLRVELKTESSNTVPRGMAIRTDPAASTMVARGGRVTLIISSGKG	-0.000921
HMVMPTGRVRYYDAEKGFGFLSKDSGGDDVYVRSSALPAGVTSLKRGQKVEFGIIDGKRGEQALSVHLL	-0.0933
HMDAVSYTQFMQDAKAGRIKKVIVHQSGILDVTTTEGRRFNLTSPGDLWMVGDLVKDGVDVVGAP	-0.0657
HMFKITNTLNKTAEVYLTIPENKKGKGKIMISVNGAFHELEAMTENDKIQSGAVVKVVRIENDNILIVET	-1.88
HMAEVIYGAGKTPAQMLGILRTMQAHGQKTVLITRLREEAAEEIGREIPLQYDKTAGVGIVGTLPQPDG	-0.0493
HMTANPHKPEPLQIDTSDITPGVTVIHKAFGNGTVVSVDNNRILIDFDGIEKKFPFPGAFLYGFLQK	0.132
HMGKTIIQLATDYLIKNMQPKSLHDIESYVLTRKKIKKSSIGAILLSKPNIFGRTEDGLFGLRIWNNFQYT	-0.738
HMEVGKRIAEIRKENRMSQEQFGQLFHVTRQTVSNWENAKSYPDLQTLVKISELFEITMDELLK	-0.511
HMQDEREEIAVEDVVGMPLWQARKVIADQGFRVLDDGAGDIVIAQMPSGGGKLIEGGQVMLYTYTD	0.186
HMQPIEIQDRITKAFERSAALEAKNINVEVDGHTVKLTGTVHSLTEKEEARKAAFFAPGVTKVENHLIVDY	0.0426
HMRTITIDDSIAGKRLDEALTLLGAESSRTKVKLLFSSPNGVLVNGEKEKPHYRVEAGDVIQFGELPKK	0.271
HMSENIQLQKEQLYQLIAQLPEQRQKIFRLHKIDNYSYQEISDFTGLSRKTIANHIYLAHQFILKKVKK	-3.25
HMKEEVMVPNVVGKELSAALLEMQVKELYPKLQLKYSNFVDDKGTVLEQSPPAGSIVKAGRRINLVVSRGA	0.144
HMTQTAVFSKGEQEYYFPLSKVLFFETDGNTINVHTADDIYETRYRLYELEEMLPGSFMRISKSAVVNTNR	-0.0904
HMYSKQRELIMEAVFKNRVHPTAEYVYKLLKKDHPELSLGTVYRNLNYWAENNMLKKINVPGGSDRFDGT	-0.00987
HMEDGEVTVPDLRGLTIKEAGTILEKLGLHLSPVGTGLAVRQDVAPGSKVARDTTITVEFEPPDIQVLR	0.103
HMGQISLSVNAIPEKAEVILDGNSIGNTPIRKNTITPGSHMFEIEKKGYAPISYDIYVNPSKAINLDFFM	-0.63

Sequence	soluble fraction (log2)
HMGLYPYSGTPADNQEANERRIFDIYSTHLERIFSDFSGATLRTKRLVLRLMQELVHSDPVRMAGILDEL	0.00204
HMATSLTEQEKLIFGLLKKQSPIELSSLKEQAGLSNKKWDKAIKGLSTQQLAKVTKTENGLFVHLLQ	0.148
HMRTLRENIMDYFKQQTIIQKSSVILLPMSKRQLADYFGVQRPSLFRELKKLKEEGIIEINNRTITIK	-1.27
HMEELPIIVAQRFLNIFRQLHIFSDERREAFNKMLLELPPEVKSIFQSLPGGTPLQEYMEDLEQKSK	-0.055
HMKDEGSLKVIGQMVVIGIPQSEAKRFANTYTVAQIRAALQYTQKRSEDKNASKLENVAAYFRQALVRNWG	-1.36
HMIEQIELEARVPDELGGQRLDQVAAQMFDDFSRSRLTGWIRDGSLTADGQQLRPRDIVYGGTLLQLKAEQ	0.00374
HMTPQVALNDTETAIYEKMKQEKQMLLGELRAQFDISNKLWDTSLKTLTKNQLLAVSKEDDLLFVKL	0.113
HMQNMVYVATKDIPAGGVIDQDSVSKTAISTSIDTSLYITDDDLGKIAVVNISQGQSVFSNMVGT	0.0238
HMDGPGDRLLIAIQENSMTQKKFAQLIGMSPNGLNSIIKGKKRLSRVLAIATERLTGVRADWILQNEQPK	0.0136
HMGSFAADVGRMVRLGRAKRGISRRKLAADSGISERYLAQIEGGQGNPSVNVLKAIADAISVPVFELLPH	-1
HMKAILHQESRSGFANATVIGGLDKFLDTNWNQLSKYIKKIETPYSDRSLEDRKIWISTILGILSTEI	0.45
HMILNNAKINTELNSLAEFTQRSLDSNTSEIGFYDYKKISYIASFATMKTTNWNVIIRAPINEFMGTVN	0.101
HMVSSEGLASGIERMLVEFGLETDKGRRFAMWSLLYMLGSAPDLDVAFKDPRDREAARTFMDLLDQANA	-0.69
HMAREQISVSQMVRDVRDGQVKNIEVLGQELRLSYADGSQKVTRKEEGQQALEILFASDIDLAALDLEVQ	0.0848
HMLVATFGPTTGWEGREIIWDVDRFILVGHGAVPAAGVLDYDRRGQLIWAQPELRAWVVEVDRWETG	-1.97
HMKIAEALNLRGDADSYERQEAIWLLEHIVGMSALELKYRGEQDLTEDQLQQYRSGLQRLEQGEPLAYVIG	-0.396
HMPSDLQATLRAVQGMLQGVEGVDARLAGQRILLEGDSADARARERAAAIAGIFPGVVIDFVG	-0.155
HMEELTPLQKYVFDYESDISDEVDMRAIKGLENANDVYDYYANVRGWEGDPDLEDDLDNIYRQVKARFA	0.0161
HMVVVPPPATPKPGDVTGDNKINGYDLSILLSNWKRPGATLAQGDLNKDGVVNGLDLSIMLLNWG	-0.0393
HMSSSYTEMQLDKLKKLLEKETLLSSEKSELKSLIHDFDKIPEVVSPLIVGEYLRLKNKYIAVINSLE	-0.214
HMLTTADLMMVHANSNKAIDYIVTDDNTKLTVDEPVTAKWITTADSIYRAVAYYNKVGDGKAQIVSVGN	0.0204
HMDLPRQSQYQALVVSYARRAGIDEAEEDLLAAFEVWRMRHNHDLAGGRTARDFILAYLPQYQRHKE	-1.63
HMEKDRDKRIRKRVLTALKRNDKKMTDKAFALLTSRIRDESILDQEVLKLIGYVGDRTTIDSKDINIVVAE	0.0525
HMNRIARRELMEQLFADNKITTQEQLQQLLRAEGVEVTQATISRDMRILNIVKVSDQNGNTYYKQMK	-0.15
HMKKYLIIDAANEKIIFKIIDNNKTYTNDYENSRKNFDRFAVLLFNFLNKNMISFDTIDKAL	-0.0864

Sequence	soluble fraction (log2)
HMSDAQIKASINDLWFKYNLETFAKLNLNVNQGRVLVTGIVQNPEHRLEAIRLVWTVDGVQQVINEIQVAE	-0.795
HMKTILEKDQRLAKYISYLIKRKRLSPEQVIEHLKTDDHGYEKYPKSINTIYAAIDKGLIPSVTRQDM	-0.0163
HMLDTELEANLRSQRDQKLVEELDPIVTNPLRWAELTSDKQTEWTQYRTDLLNVPQQSGFPTNVTWPEKP	0.212
HMRNNKLRRANKLKTEFENLPHIGKKRAHVLLKAFGSTENLKMTTAQALSEAAKISLKQAEEVLEAVRG	-0.0475
HMDEVLDQFVRGQIYGYIRANPGDIYSSIRDNLGLKNGVTTYHLDVLAREEYVYSEIDGTNRRFYPSGWEE	-3.2
HMSLTPSQDANRSAILDAARDLFARYGFKKTTMEDIAMALRKGKSSLYYYFKNKEDIFQAVIDS	-1.35
HMTDFDWSLFTQQLKRFNLFLSYDDREKLQTFQTLYGLNELDLAEYVAKASAGEKNGLNFNYLRQLINKEK	-0.465
HMIQLTDAEFNELVTYIKKNYGINLIKKRLLIEARMYSVLAKHGFTSFTEYINLIKRDPAELNTMLNKLTT	-1.72
HMSENMSQDLAQWYRLQQALHPNLDAPELWATDLTSQQRTVRDQLIQQWAQEKRDSLWSEISGD	0.0433
HMGIKLSDRQMQIVEIVKSQQPITSEQVAERLNLTRAALRSDLSILTMAGILEARPKVGYSLTGR	-0.334
HMPAAFALLTDREREIAALIAQRLTNREIAEKLYLSEGSVKQYVNQLYAKLGIEGDTRTKRRRLAEQAK	0.11
HMGTIRAPMPGTILKINVVDGDSVTKGDVLLILESMKMENSITSPKTGSVTSVYVSEGDPVQHGETLIDL	-0.147
HMSNGFFELKTSQQDELIDLIDSHTNFVRTKIEGELITAFLKLPMDAEEFNKLLFTNGIILSHLVKRK	-0.461
HMEDKFEYQGELKSLIEPTSFSELVSALNVRDTLQAIIDFAMREEDTSGYEELKVRQNDYIQEYLNSIGNF	-1.04
HMAESTRSRILNAAIEMMETGGESSVRLSAIAEALGIKEPSIYHHFTNRTELVNAAYIEWYW	-0.0152
HMLEAKQIQDNWESLIKLIEDNFTGERKENLLKMYTHFQDRMMFAPASSKEHFHNAFPGGYVEHVL	-0.293
HMENLSGNDIKYLRKKYNLTQKELADALGLQKFGDRTIRRWEAEETHPSKLEQSSIQSFFNSLK	0.0091
HMNFKNMIDSLSGILFKKDPSAAIIDIGGVRLKVFITVGSYEQLPAKGEQVEILTYLHVKEDILNLYG	-0.242
HMPPPVDLDKKGYKLRGIVLEDGRSAAFVFVPAEKRVVVLRENASGPVRLLETGMRRIRLQTPEGAGYLEL	-0.724
HMSGKMTVPNVVGKTETEAKSALSAKGFTNVRTETVDSTEAAGTVVKQSLDADSVQDPKTEIVLSVSNG	0.608
HMDLKHNQITMRELLRNKQAYLLLYKEFPMFMTPAILQNIRPLTLQQIIQMVRPYISRPKLNMLLEQLENI	-0.124
HMEDETAKVLRLLAENNGYLPYNDKSDPTDIYAFFGMSKKAFKMTTGNLYKQKKIQFTQTGIQLIE	-0.347
HMVPTYEAYVGKEGLVVGTLRPAGTAEFDGERLDVVSEGEYLEAGTRVQIVRTEGRRIVVRKIN	0.0504
HMPAAKARTWQEATHAFQRDFLLETLRRARFNAADAADQLGLARPALYTTAKRLGLDLVAERQRWEAEAH	-0.173
HMEGSVTVMVNGESVTMTGKQNYIFVDVFDWYSFDLSAGKGRAIATLVNGKEAEFSQPLANGDNIELYWKE	-0.118
